This assay addresses HgdA (All5345), putative nucleoside-diphosphate-sugar epimerase / UDP-galactose 4-epimerase of Anabaena sp. PCC 7120 (Anabaena sp. PCC 7120). Description: SEC; Superdex 75 10/300 on an ÄKTA system, Tris buffer (20 mmol/L Tris, 200 mmol/L NaCl, pH 7.5); masses calibrated with standard proteins (Gel Filtration LMW Calibration Kit).

In the case of “HgdA (All5345), putative nucleoside-diphosphate-sugar epimerase / UDP-galactose 4-epimerase of Anabaena sp. PCC 7120 (enzyme)”, the stoichiometry N came out at 2.

The values above are taken from article PMC6692557.
